Measured values published in doi:10.1101/2022.08.08.503151.

Molecular target: 80S ribosome (yeast) (S. cerevisiae (endogenous in TB50a)) (UniProt P14126)
Assay: co-sedimentation

UniProt P14126, sequence (P14126 whole entry, looked up): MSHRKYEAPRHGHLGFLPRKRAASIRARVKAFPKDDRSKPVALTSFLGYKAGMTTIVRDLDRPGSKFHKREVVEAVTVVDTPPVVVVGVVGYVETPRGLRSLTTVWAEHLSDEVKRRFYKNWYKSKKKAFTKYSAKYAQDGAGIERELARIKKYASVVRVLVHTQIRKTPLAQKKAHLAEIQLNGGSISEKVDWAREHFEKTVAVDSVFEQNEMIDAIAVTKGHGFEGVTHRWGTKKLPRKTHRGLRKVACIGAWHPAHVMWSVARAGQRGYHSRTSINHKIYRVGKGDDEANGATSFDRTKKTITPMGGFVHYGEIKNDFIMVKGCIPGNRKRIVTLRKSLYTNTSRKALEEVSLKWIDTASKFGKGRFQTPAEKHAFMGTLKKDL

B1: Stm1 (suppressor of target of Myb protein 1) (natural protein)
chain: MSNPFDLLGNDVEDADVVVLPPKEIVKSNTSSKKADVPPPSADPSKARKNRPRPSGNEGAIRDKTAGRRNNRSKDVTDSATTKKSNTRRATDRHSRTGKTDTKKKVNQGWGDDKKELSAEKEAQADAAAEIAEDAAEAEDAGKPKTAQLSLQDYLNQQANNQFNKVPEAKKVELDAERIETAEKEAYVPATKVKNVKSKQLKTKEYLEFDATFVESNTRKNFGDRNNNSRNNFNNRRGGRGARKGNNTANATNSANTVQKNRNIDVSNLPSLA
Work on B1 yielded a fold accumulation in the 80S fraction, without CHX against CHX-treated of 3 fold.
